This is an account of results in ChEMBL document CHEMBL2074293, “Function and expression of multidrug resistance-associated protein family in human colon adenocarcinoma cells (Caco-2)” (J Pharmacol Exp Ther, 2000).

Usually Km stands for the substrate concentration at which the rate is half of its maximum.

Substrate in series [1]: C[C@]12CC[C@@H]3c4ccc(O)cc4CC[C@H]3[C@@H]1CC[C@@H]2O[C@@H]1O[C@H](C(=O)O)[C@@H](O)[C@H](O)[C@H]1O
The experiment in a line: (§1) TP_TRANSPORTER: uptake in brush-border membrane vesicle from Caco-2 cells. It is filed as functional, cell membranes.

Substrate in series [2]: N[C@@H](CCC(=O)N[C@H](CSc1ccc([N+](=O)[O-])cc1[N+](=O)[O-])C(=O)NCC(=O)O)C(=O)O
The description is as §1. It is filed as functional, cell membranes.

B1: ATP-binding cassette sub-family C member 2 (Homo sapiens) (protein)
chain: MLEKFCNSTFWNSSFLDSPEADLPLCFEQTVLVWIPLGYLWLLAPWQLLHVYKSRTKRSSTTKLYLAKQVFVGFLLILAAIELALVLTEDSGQATVPAVRYTNPSLYLGTWLLVLLIQYSRQWCVQKNSWFLSLFWILSILCGTFQFQTLIRTLLQGDNSNLAYSCLFFISYGFQILILIFSAFSENNESSNNPSSIASFLSSITYSWYDSIILKGYKRPLTLEDVWEVDEEMKTKTLVSKFETHMKRELQKARRALQRRQEKSSQQNSGARLPGLNKNQSQSQDALVLEDVEKKKKKSGTKKDVPKSWLMKALFKTFYMVLLKSFLLKLVNDIFTFVSPQLLKLLISFASDRDTYLWIGYLCAILLFTAALIQSFCLQCYFQLCFKLGVKVRTAIMASVYKKALTLSNLARKEYTVGETVNLMSVDAQKLMDVTNFMHMLWSSVLQIVLSIFFLWRELGPSVLAGVGVMVLVIPINAILSTKSKTIQVKNMKNKDKRLKIMNEILSGIKILKYFAWEPSFRDQVQNLRKKELKNLLAFSQLQCVVIFVFQLTPVLVSVVTFSVYVLVDSNNILDAQKAFTSITLFNILRFPLSMLPMMISSMLQASVSTERLEKYLGGDDLDTSAIRHDCNFDKAMQFSEASFTWEHDSEATVRDVNLDIMAGQLVAVIGPVGSGKSSLISAMLGEMENVHGHITIKGTTAYVPQQSWIQNGTIKDNILFGTEFNEKRYQQVLEACALLPDLEMLPGGDLAEIGEKGINLSGGQKQRISLARATYQNLDIYLLDDPLSAVDAHVGKHIFNKVLGPNGLLKGKTRLLVTHSMHFLPQVDEIVVLGNGTIVEKGSYSALLAKKGEFAKNLKTFLRHTGPEEEATVHDGSEEEDDDYGLISSVEEIPEDAASITMRRENSFRRTLSRSSRSNGRHLKSLRNSLKTRNVNSLKEDEELVKGQKLIKKEFIETGKVKFSIYLEYLQAIGLFSIFFIILAFVMNSVAFIGSNLWLSAWTSDSKIFNSTDYPASQRDMRVGVYGALGLAQGIFVFIAHFWSAFGFVHASNILHKQLLNNILRAPMRFFDTTPTGRIVNRFAGDISTVDDTLPQSLRSWITCFLGIISTLVMICMATPVFTIIVIPLGIIYVSVQMFYVSTSRQLRRLDSVTRSPIYSHFSETVSGLPVIRAFEHQQRFLKHNEVRIDTNQKCVFSWITSNRWLAIRLELVGNLTVFFSALMMVIYRDTLSGDTVGFVLSNALNITQTLNWLVRMTSEIETNIVAVERITEYTKVENEAPWVTDKRPPPDWPSKGKIQFNNYQVRYRPELDLVLRGITCDIGSMEKIGVVGRTGAGKSSLTNCLFRILEAAGGQIIIDGVDIASIGLHDLREKLTIIPQDPILFSGSLRMNLDPFNNYSDEEIWKALELAHLKSFVASLQLGLSHEVTEAGGNLSIGQRQLLCLGRALLRKSKILVLDEATAAVDLETDNLIQTTIQNEFAHCTVITIAHRLHTIMDSDKVMVLDNGKIIECGSPEELLQIPGPFYFMAKEAGIENVNSTKF
Turning to B1, the Km in series [1] was determined as 9.4 µM; in series [2], 16.9 µM.
